Test results: the supplement of paper PMC9233669
Fewer inactive variants are shown than the library holds.

Key:
biotinyl-Phe-oxazolone = assay: self-aminoacylation, catalytic enhancement (BFO) (fold over background); higher = more active; k-Seq, kA / k0A0; sequences stand for … in GGGAAUGGAUCCACAUCUACGAAUUC…UUCACUGCAGACUUGACGAAGCUG
Method in brief: (§1)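 Mutagenized RNA pools with a 21-nt variable region (0.43 μM) reacted with each biotinyl-aminoacyl-oxazolone at 2–1250 μM. Reactions ran in 50 μL HEPES/NaCl/KCl/MgCl2/CaCl2 buffer with 5% acetonitrile, pH 6.9–7.0, for 90 minutes at room temperature. Streptavidin-captured RNA was quantified by triplicate qPCR and Illumina sequencing, and per-sequence fraction reacted was fit to a pseudo-first-order model with 1000 bootstraps. Catalytic enhancement is median kA divided by the uncatalyzed rate, the low-activity peak of a bimodal Gaussian fit.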

biotinyl-Leu-oxazolone = assay: self-aminoacylation, catalytic enhancement (BLO) (fold over background); higher = more active; k-Seq, kA / k0A0; sequences stand for … in GGGAAUGGAUCCACAUCUACGAAUUC…UUCACUGCAGACUUGACGAAGCUG
Method in brief: as §1

biotinyl-Trp-oxazolone = assay: self-aminoacylation, catalytic enhancement (BWO) (fold over background); higher = more active; k-Seq, kA / k0A0; sequences stand for … in GGGAAUGGAUCCACAUCUACGAAUUC…UUCACUGCAGACUUGACGAAGCUG
Method in brief: as §1

Row | Sequence | self-aminoacylation (biotinyl-Phe-oxazolone) | self-aminoacylation (biotinyl-Leu-oxazolone) | self-aminoacylation (biotinyl-Trp-oxazolone)
1 | AAGCUGGCUAAUAGUCGCAAG [Fam3.1 aminoacylation ribozyme variant] | 3.61 | 2.68 | 2.08
2 | AAGCUUGCUAAUAGUCGCAUG [Fam3.1 aminoacylation ribozyme variant] | 3.98 | 2.07 | 
3 | AAGUUAGCUAAUAGUCGCGAG [Fam3.1 aminoacylation ribozyme variant] | 2.29 | 2.09 | 2.24
4 | ACACACUUCAAGCCAUCGGUC [Fam1B.1 aminoacylation ribozyme variant] | 2.41 | 2.11 | 
5 | ACACGCUUCAAGCAAUCGGUC [Fam1B.1 aminoacylation ribozyme variant] | 63.7 | 2.68 | 38.8
6 | AUACACCUAGGUCGUCGGGUG [Fam2.2 aminoacylation ribozyme variant] | 6.55 | 2.55 | 
7 | AUUCACAUAGGUCAUCGAGUG [Fam2.2 aminoacylation ribozyme variant] | 3.08 | 2.69 | 2.2
8 | AUUCACCGAGGUCAUCAGGUG [Fam2.2 aminoacylation ribozyme variant] | 2.42 | 2.03 | 
9 | AUUCACCUACGUCGUCGGGUG [Fam2.2 aminoacylation ribozyme variant] | 11.5 | 2.38 | 
10 | AUUCACCUAGCUCCUCGGGUG [Fam2.2 aminoacylation ribozyme variant] | 5.19 | 2.24 | 
11 | AUUCACCUAGGUCAUCUGGCG [Fam2.2 aminoacylation ribozyme variant] |  | 2.88 | 
12 | AUUCACCUGGGUCAUAGGGUG [Fam2.2 aminoacylation ribozyme variant] | 6.22 | 2.23 | 
13 | CAACGCUUCAAGCAAUCGGUC [Fam1B.1 aminoacylation ribozyme variant] | 58.6 | 2.08 | 33.7
14 | CCACUCUUCAAGCAAUCAGUC [Fam1B.1 aminoacylation ribozyme variant] | 8.2 |  | 2.76
15 | CCACUUCAAACAAUCGGUCGG [Fam1A.1 aminoacylation ribozyme variant] | 99.5 | 2.54 | 33.2
16 | CCAGACUUCAAACAAUCGGUC [Fam1B.1 aminoacylation ribozyme variant] | 85.8 | 2.19 | 40.2
17 | CCCCACUUCAAGUAAUCGGUC [Fam1B.1 aminoacylation ribozyme variant] | 15.4 | 2.08 | 14.2
18 | CCCUACUUCAAGCAAUCGGUC [Fam1B.1 aminoacylation ribozyme variant] | 73.5 |  | 33.8
19 | CCGCACUUCAAGCAAUCGGUC [Fam1B.1 aminoacylation ribozyme variant] | 61.6 | 2.01 | 36.5

Row | Sequence | self-aminoacylation (biotinyl-Phe-oxazolone) | self-aminoacylation (biotinyl-Leu-oxazolone) | self-aminoacylation (biotinyl-Trp-oxazolone)
20 | CGACACUUCACGCAAUCGGUC [Fam1B.1 aminoacylation ribozyme variant] | 4.13 | 2.15 | 
21 | CGACCUCAAACAAUCGGUCUG [Fam1A.1 aminoacylation ribozyme variant] | 3.54 |  | 4.64
22 | CGACUUCAAAUAAUCGGUCUG [Fam1A.1 aminoacylation ribozyme variant] | 16.2 |  | 14.6
23 | CGACUUCAAUCAAUCGGUCUG [Fam1A.1 aminoacylation ribozyme variant] | 42.2 | 2.21 | 24.3
24 | CGAGACUUCAAGCAAUCGGUC [Fam1B.1 aminoacylation ribozyme variant] | 5.77 |  | 4.16
25 | CGUCUUCAAACAAUCGGUCUG [Fam1A.1 aminoacylation ribozyme variant] | 79 | 2.22 | 33.5
26 | CUACACUUCAAGAAAUCGGUC [Fam1B.1 aminoacylation ribozyme variant] | 8.72 |  | 5.31
27 | CUACCUCCAACAAUCGGUCUG [Fam1A.1 aminoacylation ribozyme variant] | 4.71 |  | 3.94
28 | CUACGUCAAACAAUCGGUGUG [Fam1A.1 aminoacylation ribozyme variant] |  | 2.02 | 
29 | CUACUUCAAACAAUCGGGCUG [Fam1A.1 aminoacylation ribozyme variant] | 13.2 |  | 9.43
30 | CUACUUCAAACAAUCGGUCGG [Fam1A.1 aminoacylation ribozyme variant] | 27.4 |  | 17.3
31 | CUACUUCAAACAAUCGGUCUA [Fam1A.1 aminoacylation ribozyme variant] | 24.5 |  | 10
32 | CUACUUCAAAUAAUCGGUCUC [Fam1A.1 aminoacylation ribozyme variant] | 15.6 |  | 7.99
33 | CUACUUCAACCAAUCGGUCAG [Fam1A.1 aminoacylation ribozyme variant] | 6.18 |  | 3.33
34 | CUACUUCAACCAAUCGGUCUA [Fam1A.1 aminoacylation ribozyme variant] | 11.9 |  | 7
35 | CUACUUCAAGCAAUCGGUCCG [Fam1A.1 aminoacylation ribozyme variant] | 3.44 |  | 3.02
36 | CUACUUCAAGCAAUCGGUCUA [Fam1A.1 aminoacylation ribozyme variant] | 7.64 |  | 4.06
37 | CUACUUCAAGCAAUCGGUCUC [Fam1A.1 aminoacylation ribozyme variant] | 11.4 |  | 6.61
38 | CUACUUCAAUCAAUCGGACUG [Fam1A.1 aminoacylation ribozyme variant] | 8.24 |  | 4.18

Row | Sequence | self-aminoacylation (biotinyl-Phe-oxazolone) | self-aminoacylation (biotinyl-Leu-oxazolone) | self-aminoacylation (biotinyl-Trp-oxazolone)
39 | CUACUUCAAUCAAUCGGUCAG [Fam1A.1 aminoacylation ribozyme variant] | 7.4 |  | 3.51
40 | CUACUUCAAUCAAUCGGUCCG [Fam1A.1 aminoacylation ribozyme variant] | 6.48 |  | 4.75
41 | CUACUUCAAUCAAUCGGUCUC [Fam1A.1 aminoacylation ribozyme variant] | 25.9 |  | 14.9
42 | CUAGUUCAAACAAUCAGUCUG [Fam1A.1 aminoacylation ribozyme variant] | 5.02 |  | 2.15
43 | CUAGUUCAAACAAUCGGUCGG [Fam1A.1 aminoacylation ribozyme variant] | 4.12 |  | 2.94
44 | CUAUUUCAAUCAAUCGGUCUG [Fam1A.1 aminoacylation ribozyme variant] | 6.36 |  | 3.72
45 | CUCAUUCAAACAAUCGGUCUG [Fam1A.1 aminoacylation ribozyme variant] | 11.7 |  | 7.42
46 | CUCCUUCAAACAAUCGGGCUG [Fam1A.1 aminoacylation ribozyme variant] | 15.1 |  | 14.4
47 | CUCCUUCAAACAAUCGGUCUU [Fam1A.1 aminoacylation ribozyme variant] | 25.4 |  | 16.3
48 | CUGCUCCAAACAAUCGGUCUG [Fam1A.1 aminoacylation ribozyme variant] | 27 |  | 20.3
49 | CUGCUUCAAUCAAUCGGUCUG [Fam1A.1 aminoacylation ribozyme variant] | 44.2 |  | 26.8
50 | GAGUUUGCUAAUAGUCGCAGG [Fam3.1 aminoacylation ribozyme variant] | 6.69 | 2.11 | 3.34
51 | GUACUUCAAACAAUCAGUCUG [Fam1A.1 aminoacylation ribozyme variant] | 19.3 |  | 10.3
52 | GUACUUCAAACAAUCGGUCGG [Fam1A.1 aminoacylation ribozyme variant] | 37.8 | 2.3 | 15.8
53 | GUACUUCAAUCAAUCGGUCUG [Fam1A.1 aminoacylation ribozyme variant] | 21.9 | 2.06 | 19.4
54 | UAACACUUCAAGCAAUCGGUC [Fam1B.1 aminoacylation ribozyme variant] | 25.6 |  | 13.3
55 | UAGUUUGCUAACAGUCGCAAG [Fam3.1 aminoacylation ribozyme variant] | 5.84 |  | 3.08
56 | UCACACUUCAAGCAAUCGGCC [Fam1B.1 aminoacylation ribozyme variant] | 4.64 |  | 4
57 | UUACUUCAACCAAUCGGUCUG [Fam1A.1 aminoacylation ribozyme variant] | 16.2 |  | 11.2
